Reference: patent US20250011747

Tested on: LMWK (natural substrate of KLK1)

Kb (KLK1 extracted from porcine pancreas), sequence (chain, as listed by the source): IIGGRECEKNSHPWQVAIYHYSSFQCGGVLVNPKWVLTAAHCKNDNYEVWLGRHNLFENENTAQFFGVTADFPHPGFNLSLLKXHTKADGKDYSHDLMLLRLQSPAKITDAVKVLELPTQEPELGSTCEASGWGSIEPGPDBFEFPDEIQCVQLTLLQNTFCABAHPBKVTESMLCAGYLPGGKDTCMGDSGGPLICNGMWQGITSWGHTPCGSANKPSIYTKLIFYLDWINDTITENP
PEG-Kb (pancreatic kallikrein I for injection, PEG10K-modified Kb), sequence (chain, as listed by the source): as above

Substance: PEG-Kb (pancreatic kallikrein I for injection, PEG10K-modified Kb)
- Bradykinin production µg/mg(enzyme), molar ratio of substrate to enzyme 1:1 (µg/mg(enzyme)): 11.3
- Bradykinin production µg/mg(enzyme), molar ratio of substrate to enzyme 5:1 (µg/mg(enzyme)): 44.6
- Bradykinin production µg/mg(enzyme), molar ratio of substrate to enzyme 10:1 (µg/mg(enzyme)): 80
- Bradykinin production µg/mg(enzyme), molar ratio of substrate to enzyme 15:1 (µg/mg(enzyme)): 104
- Bradykinin production µg/mg(enzyme), molar ratio of substrate to enzyme 20:1 (µg/mg(enzyme)): 120

Substance: Kb (KLK1 extracted from porcine pancreas)
- Bradykinin production µg/mg(enzyme), molar ratio of substrate to enzyme 1:1 (µg/mg(enzyme)): 20.9
- Bradykinin production µg/mg(enzyme), molar ratio of substrate to enzyme 5:1 (µg/mg(enzyme)): 90.8
- Bradykinin production µg/mg(enzyme), molar ratio of substrate to enzyme 10:1 (µg/mg(enzyme)): 166
- Bradykinin production µg/mg(enzyme), molar ratio of substrate to enzyme 15:1 (µg/mg(enzyme)): 218
- Bradykinin production µg/mg(enzyme), molar ratio of substrate to enzyme 20:1 (µg/mg(enzyme)): 288
